Publication PMC3765947 (Current Biology, 2012)

Molecular target: purified FMNL2 N terminus (FMNL2N, aa 2-379) (human (from the printed UniProt …, UniProt Q96PY5-3 2-379))
Experiment: ITC

Chain of purified FMNL2 N terminus (FMNL2N, aa 2-379) (human (Q96PY5 2-379): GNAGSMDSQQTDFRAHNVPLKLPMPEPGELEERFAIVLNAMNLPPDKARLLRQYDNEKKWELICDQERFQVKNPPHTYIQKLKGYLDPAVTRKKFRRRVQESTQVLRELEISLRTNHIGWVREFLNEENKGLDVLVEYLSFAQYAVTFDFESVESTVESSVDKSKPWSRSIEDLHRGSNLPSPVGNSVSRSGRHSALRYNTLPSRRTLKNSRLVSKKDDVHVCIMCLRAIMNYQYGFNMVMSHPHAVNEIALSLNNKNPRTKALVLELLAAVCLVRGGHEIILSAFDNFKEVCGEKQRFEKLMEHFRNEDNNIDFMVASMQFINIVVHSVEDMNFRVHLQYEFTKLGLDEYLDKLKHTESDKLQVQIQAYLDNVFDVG

Kd: 3.13 ± 0.38 µM
dH: -5.33 ± 0.16 kcal/mol
B1: Cdc42 (nucleotide-loaded, for ITC) (natural protein)
chain: not shown
